Details in all cases: both partners purified
The target in assay [1] is T1, MadC (lanthionine cyclase of Clostridium sp. maddingley), His6-tag cleaved off (Clostridium sp. maddingley).
T1 construct: MadC, class I lanthipeptide cyclase, Clostridium sp. maddingley, NCBI EKQ50560.1, synthetic gene from GenScript in pET28b(+); calculated molecular weight 49.71 kDa; also called cleaved MadC; class I cyclase MadC; not shown: His6, N-terminal, cleaved
The experiment in a line: ITC; MadC (200–600 μM) in the syringe, 20 injections of 2 μl into the cell with the leader variant (20–60 μM); 25°C; 50 mM HEPES, 500 mM NaCl, pH 7.5; at least triplicate. (ITC needs no label: the signal is the heat of the interaction.)

Assay [2] concerns the target T2, His6-MadC (hexa-histidine tagged cyclase MadC, wild type) (Clostridium sp. maddingley).
T2 construct: MadC, class I lanthipeptide cyclase, Clostridium sp. maddingley, NCBI EKQ50560.1, in pET28b(+) with N-terminal His6-tag and thrombin cleavage site; Thrombin cleavage site between the tag and MadC; Captured by the His-tag on the Ni-NTA chip in SPR; also the crystallised form (PDB 8BYK); also called wild-type MadC; not shown: His6, N-terminal, kept
The assay is described as follows: SPR; His6-MadC variant captured on a poly-NTA (Ni2+) chip to 400–500 RU; L3 injected at 180 nM to 30 μM; 200 mM NaCl, 50 mM HEPES/NaOH pH 8; affinity from the maximum RU values. Background: Surface plasmon resonance follows binding to a sensor surface in real time, without labels.

In assay [3] the target is T1, MadC (lanthionine cyclase of …). The experiment in a line: ITC; MadC (200–600 μM) in the syringe, 20 injections of 2 μl into the cell with the leader variant (20–60 μM); 25°C; 50 mM HEPES, 500 mM NaCl, pH 7.5; at least triplicate. This is another data set of the same source.

Broadly, the Kd is the equilibrium constant for the complex coming apart. Read a high Kd as a looser complex. For MGKLDDFDLDVKVKADTTKVGPAITSKSLCTPG (synthetic, unmodified peptide (no lanthionine rings); MadA 1-33 from Table S4) [maddinglicin leader peptide construct madL3, Leader 3 (−23 − +10)], the Kd in assay [1] stood at 5.69 µM; in assay [2], 16 ± 7 µM.

In assay [1], MGKLDDFDLDVKVKADTTKVGPAITSKS [maddinglicin leader peptide construct madL2, Leader 2 (−23 − +5)] registered an equilibrium dissociation constant (Kd) of 9.35 µM.

On to MGKLDDFDLDVKVKADTTKVGPA [maddinglicin leader peptide construct madL1, Leader 1 (−23 – −1)], for which the Kd worked out at 10.4 µM in assay [1] and 10.5 ± 4.3 µM in assay [3].

Source of the values: PMC9889658, “The structure of MadC from Clostridium maddingley reveals new insights into class I lanthipeptide cyclases” (Frontiers in Microbiology, 2022).
